From US20040215400A1, “Computational design of a water-soluble analog of a protein, such as phospholamban and potassium channel KcsA” (priority 2003, published 2004)

Columns and labels:
native channel = native channel (Streptomyces lividans, UniProt P0A334); conditions: read-out: reported Kdiss, Heginbotham et al. 1999; cited from earlier work
WSK-3 = WSK-3 (Streptomyces lividans, UniProt P0A334, L24D/W26E/G43A/Q58A/T61S/R64D/L81R/V93E/S102V/G104A, form not given)
[1] = Thermal denaturation monitored by circular dichroism at 222 nm; assay type: physicochemical; set-up: ΔCp: unit not given here
Experimental: All of the peptides were thermally unfolded, monitoring the loss of signal at 222 nm by CD spectroscopy with increasing temperature. Scans taken with 60 s signal averaging time and equilibration of 4 min at each temperature. Concentrations of peptide are 50 and 125 μM. Data were fit to a two-state model (theoretical curves are shown) with a monomer-pentamer equilibrium. […] Previously it has been shown that global fitting of such curves obtained at multiple protein concentrations can be used to confirm the aggregation state and obtain highly accurate measures of the free energy of association. Application of these procedures to WSPLB allows an excellent fit for a monomer-pentamer equilibrium, providing the thermodynamic parameters described in Table 1. The predicted midpoint concentration for the monomer-pentamer isotherm was 4.9 μM (30 kcal/mol) at 25° C., in good agreement with the value of 6 μM (28 kcal/mol) obtained from sedimentation equilibrium.
Conditions are identical to those in FIG. 2. Scans taken with 60 s signal averaging time and equilibration of 4 min at each temperature. Concentrations of both peptides are 50 μM. […] At these concentrations the ΔTm was approximately 8° C., and the ΔΔGunf was 4 kcal/mol. In Table 1, parameters are shown for full length WSPLB and phosphorylated pWSPLB, including ΔGunf, ΔHunf, and ΔCp, all at 1 M standard state, and a reference temperature of 350 K. Tm at 50 μM is also shown. ACP was a global fitting parameter for WSPLB, but held fixed for pWSPLB at the same value as WSPLB.
Thermal unfolding curves of WSPLB (residues 21-52) from 2 to 94° C. are illustrated in FIG. 7. Scans taken with 60 s signal averaging time and equilibration of 4 minutes at each temperature. Conditions and peptide concentrations were identical to those in FIG. 2. […] At higher temperatures a main transition is observed, which depends on the concentration of the peptide. […] In contrast, the main transition corresponds to dissociation of the oligomer to unfolded monomer. The increase in stability of WSPLB (residues 21-52) to WSPLB, also seen in sedimentation equilibrium, is apparent in the increase in Tm which is 76° C. for WSPLB (residues 21-52) versus 55° C. for WSPLB at 50 μM.
All CD spectra were collected on an AVIV 62DS spectropolarimeter, using a 1 mm pathlength quartz cuvette. CD spectra of WSPLB and pWSPLB were collected in 10 mM sodium phosphate pH 7.5, 50 mM NaCl, 1 mM tris (2-carboxyethyl)-phosphine hydrochloride (TCEP-HCl), and 1 mM EDTA while those for WSPLB (residues 21-52) in the same buffer substituted with 50 mM MOPS pH 7. Each wavelength scan from 200-260 nm is an average of four scans with 4 second averaging time per data point at 25° C. All thermal melting curves were collected in the same buffers as their corresponding wavelength scans, with 60 second averaging time and 4 minute equilibration time. The elipticity was measured at 222 nm as a function of increasing temperature (2-94° C.). WSPLB and pWSPLB melting curves were analyzed with Igor Pro® 3.16 (available from WaveMetrics, Inc., Oswego, Oreg. 97035), assuming a two-state unfolding pathway.
where [θ] is mean residue elipticity (deg cm^2 dmol^−1), T° is the midpoint of the transition, ΔH° is the van't Hoff enthalpy at the midpoint (kcal mol^−1), ΔS° is the standard state entropy (kcal mol^−1 K^−1), and ΔCP is the change in heat capacity over the temperature range of the experiment (kcal mol^−1 K^−1). In fitting, the floating parameters are the initial and final [θ] values, the slopes of the folded and unfolded baselines, ΔH, ΔCP, and Tm. The parameters were globally fit to three equilibria schemes, from monomer-tetramer to hexamer, using data collected at 49 and 126 μM. Only the monomer-pentamer scheme provided an adequate fit to the data. ΔCP was held constant for pWSPLB at the value obtained for WSPLB.

[2] = Sedimentation equilibrium analytical ultracentrifugation, monomer-nmer self-association; assay type: physicochemical
Experimental: Sedimentation equilibrium was used to rigorously determine the association state and thermodynamics of the observed oligomers. Because WSPLB eluted as a single homogenous species from size exclusion chromatography, and its CD spectra were concentration independent above 100 μM, we initially determined its association state at 113 μM centrifuged at 35,000 rpm. In these conditions, WSPLB sedimented as a single species with a molecular weight of approximately 31,600+/−200, or a pentamer (n=5.04). […] The monomer-pentamer dissociation constant was determined to be 6.34×10^−21 M^4 with a P(1/2)=6 μM, where P(1/2) is the midpoint of the monomer-nmer isotherm in total peptide concentration. […]
Measurements were made at 25° C. using a Beckman XL-1 analytical ultracentrifuge. […] Concentrations were monitored using absorption optics at a wavelength of 275 nm and equilibrium was assessed by the absence of significant change in radial concentration gradients in scans separated by a few hours. […] An uncertainty was estimated of about +10% in the calculated molecular weight of the protein, arising largely from uncertainty in the partial specific volume, which is calculated from a weight average of individual amino acids. […] Association constants were determined similarly, keeping the monomer molecular weight and oligomer number constant, and allowing the equilibrium constant to float. […]

[3] = global fit, monomer-pentamer, 1 M standard state, reference temperature 350 K

Chain of WSK-3 (P0A334 whole entry L24D/W26E/G43A/Q58A/T61S/R64D/L81R/V93E/S102V/G104A, looked up): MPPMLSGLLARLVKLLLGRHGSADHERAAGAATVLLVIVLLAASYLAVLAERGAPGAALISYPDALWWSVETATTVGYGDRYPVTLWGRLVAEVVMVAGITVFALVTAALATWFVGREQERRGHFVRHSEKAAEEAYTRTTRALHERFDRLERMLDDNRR
Chain of native channel (P0A334 whole entry): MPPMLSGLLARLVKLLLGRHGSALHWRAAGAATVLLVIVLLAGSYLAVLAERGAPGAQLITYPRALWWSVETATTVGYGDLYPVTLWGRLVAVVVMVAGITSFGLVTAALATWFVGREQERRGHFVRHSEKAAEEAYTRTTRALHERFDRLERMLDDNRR

| Compound | Kd (native channel) | competition with AgTx2-DNP for binding to WSK-3 (WSK-3; AgTx2-DNP 10 μM, WSK-3 10 μM tetramer, relative to KCl control) | Kd (WSK-3; read-out: Kdiss for TEA, from TEA concentration for 50% total toxin dissociation, assuming Kdiss≦2 μM for AgTx2-DNP) | increase of stability by phosphorylation [1] | Tm at 50 μM ([1]; 50 μM peptide, CD 222 nm, 2-94° C.) | predicted midpoint concentration for the monomer-pentamer isotherm ([1]; at 25° C., from global fit of thermal denaturation) | free energy of association (monomer-pentamer) ([1]; at 25° C., from thermal denaturation) | ΔGunf [1, 3] | ΔHunf [1, 3] | ΔCp ([1]; global fitting parameter for WSPLB, held fixed for pWSPLB at the WSPLB value) | free energy of association (monomer-pentamer) ([2]; from sedimentation equilibrium) | P(1/2), midpoint of the monomer-nmer isotherm in total peptide concentration ([2]; monomer-pentamer, sedimentation equilibrium, 25° C.) |
| --- | --- | --- | --- | --- | --- | --- | --- | --- | --- | --- | --- | --- |
| CC[N+](CC)(CC)CC.[Cl-] [TEA, tetraethylammonium chloride] | 3.2 to 22 mM | induces dissociation of AgTx2-DNP from WSK-3 in a concentration-dependent manner | ≤ 80 mM | – | – | – | – | – | – | – | – | – |
| WSPLB: computationally designed water-soluble analog of phospholamban, full length, expressed in E. coli (MDKVQYLTRSAIRRAISTIEMPQQARQNLQNLYINRCLREICQELKEIRAMLK; WSPLB) | – | – | – | -0.9 kcal/mol/monomer | 55 °C | 4.9 µM | 30 kcal/mol | 19.2 kcal/mol | 229 kcal/mol | 1.9 | 28 kcal/mol | 6 µM |
